In the supplement of paper PMC9170038:

System: MS2 coat protein
Experiment: apparent KD of MS2 coat protein; designed switch direction (-1 OFF switch, 1 ON switch): -1; higher = weaker reporter binding
In short: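 Three titration conditions were used: no input, 200 uM small-molecule ligand, and an oligonucleotide input. In each, SNAP-549-labelled MS2 coat protein was raised from 0.7 or 1.5 nM, doubling, to 3 µM over designed RNA switches transcribed on Illumina chips by stalled E. coli RNA polymerase. Curve fits of normalised cluster fluorescence gave values whose per-design median over clusters is the apparent KD.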

[1] = Eterna round: R95, input ligand: FMN 200 uM
[2] = Eterna round: R95, input ligand: microRNA oligo, concentration not stated
[3] = Eterna round: R95, input ligand: none
[4] = input ligand: microRNA oligo, concentration not stated

Row | Sequence | apparent KD of MS2 coat protein [1] | apparent KD of MS2 coat protein [2] | apparent KD of MS2 coat protein [3] | apparent KD of MS2 coat protein (input ligand: FMN 200 uM) | apparent KD of MS2 coat protein [4] | apparent KD of MS2 coat protein (input ligand: none)
1 | AGAGAGUCAGGAUAUCGGUGUGCGAGGAGAGGAGAGAGAGACGAGAAGGGACAUGAGGAUCACCCAUGUAGGUG [JR_Exclusion4)Sub019] (puzzle: Exclusion 4) | 366 nM | 389 nM | 318 nM | – | – | –
2 | AGAAGUAAAUAAGGAUAUCCAUGGGAGAGUGAAGGAGAAGGUAUAAUGUAUUCCAAUGUACCCACUAGGAGUACAAGAUGUUGA [Default title] (Eterna round: R96, puzzle: Exclusion NG 1) | – | – | – | 47.9 nM | 4.55 nM | 23.1 nM
3 | GUGCUAUAGGAAGGAUAUACUUCAUUGUUUAAACAUGAGGAUCACCCAUGUAACCUUAUGUAUGUGUAGAAGGUCCAUAGCUUA (Eterna round: R96, puzzle: Exclusion NG 2) | – | – | – | 56.9 nM | 25.1 nM | 30.2 nM
4 | CUCCGGCGUGUAGGAUAUGGAUCCGAUUAGGAUCCAGAAGGACAUGAGGAUCACCCAUGUACAUGUCGUCGGUCGUCACCGGGC [salish99_ExNG1_r04_210] (Eterna round: R96, puzzle: Exclusion NG 1) | – | – | – | 52.7 nM | 22.2 nM | 32.2 nM
5 | AAGUGUGCCUAGGAUAUGUUCGGCCAAGGUCAUACAGAAGGAGGCACAUGAGGAUCACCCAUGUAGUGUCCAAC [Orririvebe] (puzzle: Exclusion 6) | – | 88.1 nM | – | – | – | –
6 | AAGACACUUAGAGGAUAUGUGAAAGGAAGUGUAACAGAAGGCUAGGUGAGAACAUGAGGAUCACCCAUGUGAUCACAUGCCAAA [PowerStrip EXNG 1.27] (Eterna round: R96, puzzle: Exclusion NG 1) | – | – | – | 20 nM | 11.9 nM | 12.1 nM
7 | CCGACGUGAGGAUAUCCAUCUGGAUCAGACUAGAUCCUGAUGGAGAAGGCACAUGAGGAUCACCCAUGUCACGG [Eli 4x 4.48] (Eterna round: R97, puzzle: Exclusion 4) | – | – | – | 413 nM | – | 140 nM
8 | AAGUACCGUCACGAUAGUGAUGGUACAACAAGCAGUGAAACAUGAGGAUCACCCAUGUCCUCAGUUGCUCGUCUUAU [Sensor 3 - 79] (puzzle: Sensor v3, turn-off variant 2) | 196 nM | 492 nM | 195 nM | – | – | –
9 | CUUUUGUGAGGAUAUUGGUAGUAAAUAAAUAAAAUUAUUACCGAGAAGGCACAUGAGGAUCACCCAUGUUCCUC [Salish 062 v17] (Eterna round: R97, puzzle: Exclusion 4) | – | – | – | 823 nM | – | 50.7 nM
10 | AUACCACGAGGAUAUCGUCUAUAAUACAUGAGGAUCACCCAUGUUAUAUCUGUAAUGUUUCGAGAAGGCGUGUUUU [JR_E5_Sub083] (puzzle: Exclusion 5) | – | 16.6 nM | – | – | – | –
11 | CUUCAUUGUUGAGGAUAUAAUUAUAGGAUGUAGUUAGAAGGCGAACAUGAGGAUCACCCAUGUCAGGCAUGGAGACCCUUGACC [Eternabot solution 8] (Eterna round: R96, puzzle: Exclusion NG 1) | – | – | – | – | 308 nM | –
12 | AAUCCUGAAGUUAGGAUAUGAAGUAUCACUACACUUCAGAAGGAACUUGAGGAUCACCCAAGUAGCCGUGAGGC [jl-bmx4.4.63 ViennaUCT mod] (Eterna round: R97, puzzle: Brourd's mod of Exclusion 4) | – | – | – | 96 nM | – | 20.3 nM
13 | GACCUAUAGGUAGGAUAUCAUUGCGAUUAGCUAUGAGAAGGACCACAUGAGGAUCACCCAUGUCCUCCAAUUAACCGAAAGGUC [Fiskers ExNg1 - 3] (Eterna round: R96, puzzle: Exclusion NG 1) | – | – | – | 44.9 nM | 21.9 nM | 30.1 nM
14 | UGUACUAACACGAUAGUGUUAGUACAAUAAGCUUGUGUUACAUGAGGAUCACCCAUGUCCUCAUAAGCUCGUCUUAU [Mat - Sensor v3 - Turn-off var 2 - D55] (puzzle: Sensor v3, turn-off variant 2) | 109 nM | 141 nM | 105 nM | – | – | –
15 | GUCGAGUGAGGAUAUGGUGAGUAGUGCCUGAGCGCUGCUCACCAGAAGGCACAUGAGGAUCACCCAUGUAUAAC [Mat - Exclusion 4 - Mod of JL - D14] (Eterna round: R96, puzzle: Exclusion 4) | – | – | – | 58.1 nM | 19.7 nM | 26.1 nM
16 | UUGUCGUGUGUAGGAUAUCGUUGGCGUUCGCCGCGAGAAGGACAUGAGGAUCACCCAUGUGCGUCAGGGUCGUCCACAGGUGAU [-27/-25 Kcal and A 19%] (Eterna round: R96, puzzle: Exclusion NG 1) | – | – | – | 663 nM | 281 nM | 371 nM
17 | GGAUUACGAGGAUAUCGAUUUUAGUACAUGAGGAUCACCCAUGUUGUCCAGGUCUCGUUUCGAGAAGGCGUGAUUC [LRO-Ex5-06] (puzzle: Exclusion 5) | – | 58.4 nM | – | – | – | –

Row | Sequence | apparent KD of MS2 coat protein [1] | apparent KD of MS2 coat protein [2] | apparent KD of MS2 coat protein [3] | apparent KD of MS2 coat protein (input ligand: FMN 200 uM) | apparent KD of MS2 coat protein [4] | apparent KD of MS2 coat protein (input ligand: none)
18 | GAUACCUCAGUGAGGAUAUUUUAUAGAUUAACCAGGAAGAAGGCACAUGAGGAUCACCCAUGUCCACGGCAGCC [Eternabot (L1) Solution 10] (Eterna round: R97, puzzle: Brourd's mod of Exclusion 4) | – | – | – | 23.2 nM | – | 20.9 nM
19 | CUGGUCCGAGGAUAUAUUAUGUGAAACAUGAGGAUCACCCAUGUAAUAUGAUGGAUGUAAAUAGAAGGCGGACUAG [JL-ex5-3.07] (puzzle: Exclusion 5) | 38.2 nM | 37.3 nM | 47.2 nM | – | – | –
20 | UGUUGUCGCGCAGGAUAUGAGGAUCACCCAUAUAGAGGAUAUGAAAAGAAGGUUCUGAGGAUCACCCAGAAGGGCGGGACAACU [pwkr exNG2 2xF5 2xFMN.19] (Eterna round: R96, puzzle: Exclusion NG 2) | – | – | – | 384 nM | 48.7 nM | 67.4 nM
21 | GUCGAUGUCAAAGGAUAUCAGCACGAUUAGUGCUGAGAAGGUUGAACAUGAGGAUCACCCAUGUAGAUCAUUAACGACUUAAUU [ENG1/10-A2] (Eterna round: R96, puzzle: Exclusion NG 1) | – | – | – | 28.4 nM | 14.1 nM | 18 nM
22 | CUCUGCACGCUGCGGUCCUACAUGAGGAUCACCCAUGUGGUCUGGUGGCGUGGGUCACCGGACUUGGCUCGUCUUGC [salish99_S_TOV1_R5_051] (Eterna round: R97, puzzle: Sensor, turn-off variant 1) | – | – | – | 21 nM | – | 22.7 nM
23 | GGUGUGAGGCAGGAUAUGCAAUAAGUAAGUAAUGCAGAAGGGUCUACAUGAGGAUCACCCAUGUGUGCGGUAGA [Ex6 #2] (Eterna round: R97, puzzle: Exclusion 6) | – | – | – | 202 nM | – | 109 nM
24 | UCGUCGUCUGCGCCUGGACACAUGAGGAUCACCCAUGUCCCUAGCGGUUUACCGCUGUGACAAAACAAGCUGCUCGU [Eternabot (Original) Solution 25] (Eterna round: R97, puzzle: Sensor, turn-off variant 1) | – | – | – | 145 nM | – | 185 nM
25 | GAUCAUGCAGGAUAUACAUUUUCCAUGAAAACAUGGUCCUCACAUGAGGAUCACCCAUGUAGAAGGGCAUGAUC [Omei Ex2 A30] (Eterna round: R97, puzzle: Exclusion 2) | – | – | – | 37.6 nM | – | 855 nM
26 | AAGGAACAUGAGGAUCACCCAUGUAAGGAUAUGCAAAGAGAGAAAGAAGAAGGAGAAAGCAGAAGGUACAAGGA [JR_Exclu1_Sub072] (puzzle: Exclusion 1) | 47.3 nM | 36.2 nM | 65.8 nM | – | – | –
27 | AUGGGUCCUCUCGGAGCGACAUGAGGAUCACCCAUGUGUGUUGAGGAUAUCCACUGCUCAGGACGGGAGAAGGCAGUGUACUGU [Ex NG3 #86] (Eterna round: R96, puzzle: Exclusion NG 3) | – | – | – | 55.9 nM | 32.5 nM | 48.8 nM
28 | GAUUGAUAAGGAUAUACAUGAGGAUCACCCAUGUGCUUCAGCUAGGAGACUAGCAUUGGUAGAAGGUAUUAAUC [Mod of lroppy 12 - Jieux - Exclusion 3] (Eterna round: R97, puzzle: Exclusion 3) | – | – | – | 51.8 nM | – | 21.8 nM
29 | CUUAUGUGAGGAUAUGCCUGGCCGUGAGGCCAAAUUGAUAAGCAGAAGGCACAUGAGGAUCACCCAUGUGCGGG [jl-ex4-4.68 ViennaUCT mod] (Eterna round: R97, puzzle: Exclusion 4) | – | – | – | 112 nM | – | 241 nM
30 | AGCCUAGCAGGAUAUGCUCGGGAUUACAUGAGGAUCACCCAUGUGACUGAUUGUUGUCUUGCAGAAGGGCUAGGGA [JL-EX5-4.04 ViennaUCT mod] (Eterna round: R97, puzzle: Exclusion 5) | – | – | – | 365 nM | – | 49 nM
31 | CUUUUGUGAGGAUAUCAGUAGUAAUUAAAUAAAAUUACUACUGAGAAGGCACAUGAGGAUCACCCAUGUUCCUC [salish99_ex3_r3_077] (puzzle: Exclusion 4) | – | 39.5 nM | – | – | – | –
32 | GAUCGGACGUGGUCAGGUAACAUGAGGAUCACCCAUGUAGGUCUAGGAACAAGCUUUUUGAAAGCUCGUCUUAUAUA [JR_SV3TOV1_Sub057] (puzzle: Sensor v3, turn-off variant 1) | 44.8 nM | 25.5 nM | 49.3 nM | – | – | –
33 | AUCCUACAUGAGGAUCACCCAUGUCAGGAUAUCCAAGAAAUAUGGCCGUAUCGGCCAUGGAGAAGGGAUAUGGG [jl-ex1-4.67 ViennaUCT mod] (Eterna round: R97, puzzle: Exclusion 1) | – | – | – | 26.5 nM | – | 115 nM
